Data: patent publication US20170275666A1, “Methods for Preparing Rebaudioside I and Uses” (The Coca-Cola Company, priority 2014, published 2017)

B1: UGT76G1var68: UGT76G1 variant, mutations Q342K_G348P_I373L_Y397E (protein, UniProt Q6VAB4 1-458, looked up, variant Q342K G348P I373L Y397E)
UDP-glycosyltransferase 76G1: MENKTETTVRRRRRIILFPVPFQGHINPILQLANVLYSKGFSITIFHTNFNKPKTSNYPHFTFRFILDNDPQDERISNLPTHGPLAGMRIPIINEHGADELRRELELLMLASEEDEEVSCLITDALWYFAQSVADSLNLRRLVLMTSSLFNFHAHVSLPQFDELGYLDPDDKTRLEEQASGFPMLKVKDIKSAYSNWQILKEILGKMIKQTKASSGVIWNSFKELEESELETVIREIPAPSFLIPLPKHLTASSSSLLDHDRTVFQWLDQQPPSSVLYVSFGSTSEVDEKDFLEIARGLVDSKQSFLWVVRPGFVKGSTWVEPLPDGFLGERGRIVKWVPQKEVLAHPAIGAFWTHSGWNSTLESVCEGVPMLFSDFGLDQPLNARYMSDVLKVGVELENGWERGEIANAIRRVMVDEEGEYIRQNARVLKQKADVSLMKGGSSYESLESLVSYISSL
B2: UGT76G1var76: UGT76G1 variant, mutations F22Y_A239I_L246F_I295M_R334K (protein, UniProt Q6VAB4 1-458, looked up, variant F22Y A239I L246F I295M R334K)
UDP-glycosyltransferase 76G1: MENKTETTVRRRRRIILFPVPYQGHINPILQLANVLYSKGFSITIFHTNFNKPKTSNYPHFTFRFILDNDPQDERISNLPTHGPLAGMRIPIINEHGADELRRELELLMLASEEDEEVSCLITDALWYFAQSVADSLNLRRLVLMTSSLFNFHAHVSLPQFDELGYLDPDDKTRLEEQASGFPMLKVKDIKSAYSNWQILKEILGKMIKQTKASSGVIWNSFKELEESELETVIREIPIPSFLIPFPKHLTASSSSLLDHDRTVFQWLDQQPPSSVLYVSFGSTSEVDEKDFLEMARGLVDSKQSFLWVVRPGFVKGSTWVEPLPDGFLGERGKIVKWVPQQEVLAHGAIGAFWTHSGWNSTLESVCEGVPMIFSDFGLDQPLNARYMSDVLKVGVYLENGWERGEIANAIRRVMVDEEGEYIRQNARVLKQKADVSLMKGGSSYESLESLVSYISSL
B3: UGT76G1var71: UGT76G1 variant, mutations I295M_V300A_K393G_Q432E (protein, UniProt Q6VAB4 1-458, looked up, variant I295M V300A K393G Q432E)
UDP-glycosyltransferase 76G1: MENKTETTVRRRRRIILFPVPFQGHINPILQLANVLYSKGFSITIFHTNFNKPKTSNYPHFTFRFILDNDPQDERISNLPTHGPLAGMRIPIINEHGADELRRELELLMLASEEDEEVSCLITDALWYFAQSVADSLNLRRLVLMTSSLFNFHAHVSLPQFDELGYLDPDDKTRLEEQASGFPMLKVKDIKSAYSNWQILKEILGKMIKQTKASSGVIWNSFKELEESELETVIREIPAPSFLIPLPKHLTASSSSLLDHDRTVFQWLDQQPPSSVLYVSFGSTSEVDEKDFLEMARGLADSKQSFLWVVRPGFVKGSTWVEPLPDGFLGERGRIVKWVPQQEVLAHGAIGAFWTHSGWNSTLESVCEGVPMIFSDFGLDQPLNARYMSDVLGVGVYLENGWERGEIANAIRRVMVDEEGEYIRQNARVLKEKADVSLMKGGSSYESLESLVSYISSL
B4: UGT76G1var75: UGT76G1 variant, mutations F41L_A239I_Q266S_S375M_P382M (protein, UniProt Q6VAB4 1-458, looked up, variant F41L A239I Q266S S375M P382M)
UDP-glycosyltransferase 76G1: MENKTETTVRRRRRIILFPVPFQGHINPILQLANVLYSKGLSITIFHTNFNKPKTSNYPHFTFRFILDNDPQDERISNLPTHGPLAGMRIPIINEHGADELRRELELLMLASEEDEEVSCLITDALWYFAQSVADSLNLRRLVLMTSSLFNFHAHVSLPQFDELGYLDPDDKTRLEEQASGFPMLKVKDIKSAYSNWQILKEILGKMIKQTKASSGVIWNSFKELEESELETVIREIPIPSFLIPLPKHLTASSSSLLDHDRTVFSWLDQQPPSSVLYVSFGSTSEVDEKDFLEIARGLVDSKQSFLWVVRPGFVKGSTWVEPLPDGFLGERGRIVKWVPQQEVLAHGAIGAFWTHSGWNSTLESVCEGVPMIFMDFGLDQMLNARYMSDVLKVGVYLENGWERGEIANAIRRVMVDEEGEYIRQNARVLKQKADVSLMKGGSSYESLESLVSYISSL
B5: UGT76G1var73: UGT76G1 variant, mutations F22Y_D301N_R334H_Q342E_V396F (protein, UniProt Q6VAB4 1-458, looked up, variant F22Y D301N R334H Q342E V396F)
UDP-glycosyltransferase 76G1: MENKTETTVRRRRRIILFPVPYQGHINPILQLANVLYSKGFSITIFHTNFNKPKTSNYPHFTFRFILDNDPQDERISNLPTHGPLAGMRIPIINEHGADELRRELELLMLASEEDEEVSCLITDALWYFAQSVADSLNLRRLVLMTSSLFNFHAHVSLPQFDELGYLDPDDKTRLEEQASGFPMLKVKDIKSAYSNWQILKEILGKMIKQTKASSGVIWNSFKELEESELETVIREIPAPSFLIPLPKHLTASSSSLLDHDRTVFQWLDQQPPSSVLYVSFGSTSEVDEKDFLEIARGLVNSKQSFLWVVRPGFVKGSTWVEPLPDGFLGERGHIVKWVPQEEVLAHGAIGAFWTHSGWNSTLESVCEGVPMIFSDFGLDQPLNARYMSDVLKVGFYLENGWERGEIANAIRRVMVDEEGEYIRQNARVLKQKADVSLMKGGSSYESLESLVSYISSL
B6: UGT76G1var70: UGT76G1 variant, mutations E224A_I295T_V300A_G348P (protein, UniProt Q6VAB4 1-458, looked up, variant E224A I295T V300A G348P)
UDP-glycosyltransferase 76G1: MENKTETTVRRRRRIILFPVPFQGHINPILQLANVLYSKGFSITIFHTNFNKPKTSNYPHFTFRFILDNDPQDERISNLPTHGPLAGMRIPIINEHGADELRRELELLMLASEEDEEVSCLITDALWYFAQSVADSLNLRRLVLMTSSLFNFHAHVSLPQFDELGYLDPDDKTRLEEQASGFPMLKVKDIKSAYSNWQILKEILGKMIKQTKASSGVIWNSFKALEESELETVIREIPAPSFLIPLPKHLTASSSSLLDHDRTVFQWLDQQPPSSVLYVSFGSTSEVDEKDFLETARGLADSKQSFLWVVRPGFVKGSTWVEPLPDGFLGERGRIVKWVPQQEVLAHPAIGAFWTHSGWNSTLESVCEGVPMIFSDFGLDQPLNARYMSDVLKVGVYLENGWERGEIANAIRRVMVDEEGEYIRQNARVLKQKADVSLMKGGSSYESLESLVSYISSL
B7: UGT76G1var74: UGT76G1 variant, mutations I295T_I373L_S375R_Y397Q_Q432E (protein, UniProt Q6VAB4 1-458, looked up, variant I295T I373L S375R Y397Q Q432E)
UDP-glycosyltransferase 76G1: MENKTETTVRRRRRIILFPVPFQGHINPILQLANVLYSKGFSITIFHTNFNKPKTSNYPHFTFRFILDNDPQDERISNLPTHGPLAGMRIPIINEHGADELRRELELLMLASEEDEEVSCLITDALWYFAQSVADSLNLRRLVLMTSSLFNFHAHVSLPQFDELGYLDPDDKTRLEEQASGFPMLKVKDIKSAYSNWQILKEILGKMIKQTKASSGVIWNSFKELEESELETVIREIPAPSFLIPLPKHLTASSSSLLDHDRTVFQWLDQQPPSSVLYVSFGSTSEVDEKDFLETARGLVDSKQSFLWVVRPGFVKGSTWVEPLPDGFLGERGRIVKWVPQQEVLAHGAIGAFWTHSGWNSTLESVCEGVPMLFRDFGLDQPLNARYMSDVLKVGVQLENGWERGEIANAIRRVMVDEEGEYIRQNARVLKEKADVSLMKGGSSYESLESLVSYISSL
B8: UGT76G1var69: UGT76G1 variant, mutations S274G_I295T_I335V_L379A (protein, UniProt Q6VAB4 1-458, looked up, variant S274G I295T I335V L379A)
UDP-glycosyltransferase 76G1: MENKTETTVRRRRRIILFPVPFQGHINPILQLANVLYSKGFSITIFHTNFNKPKTSNYPHFTFRFILDNDPQDERISNLPTHGPLAGMRIPIINEHGADELRRELELLMLASEEDEEVSCLITDALWYFAQSVADSLNLRRLVLMTSSLFNFHAHVSLPQFDELGYLDPDDKTRLEEQASGFPMLKVKDIKSAYSNWQILKEILGKMIKQTKASSGVIWNSFKELEESELETVIREIPAPSFLIPLPKHLTASSSSLLDHDRTVFQWLDQQPPGSVLYVSFGSTSEVDEKDFLETARGLVDSKQSFLWVVRPGFVKGSTWVEPLPDGFLGERGRVVKWVPQQEVLAHGAIGAFWTHSGWNSTLESVCEGVPMIFSDFGADQPLNARYMSDVLKVGVYLENGWERGEIANAIRRVMVDEEGEYIRQNARVLKQKADVSLMKGGSSYESLESLVSYISSL
B9: UGT76G1var72: UGT76G1 variant, mutations T284L_D301N_K303G_S375R (protein, UniProt Q6VAB4 1-458, looked up, variant T284L D301N K303G S375R)
UDP-glycosyltransferase 76G1: MENKTETTVRRRRRIILFPVPFQGHINPILQLANVLYSKGFSITIFHTNFNKPKTSNYPHFTFRFILDNDPQDERISNLPTHGPLAGMRIPIINEHGADELRRELELLMLASEEDEEVSCLITDALWYFAQSVADSLNLRRLVLMTSSLFNFHAHVSLPQFDELGYLDPDDKTRLEEQASGFPMLKVKDIKSAYSNWQILKEILGKMIKQTKASSGVIWNSFKELEESELETVIREIPAPSFLIPLPKHLTASSSSLLDHDRTVFQWLDQQPPSSVLYVSFGSLSEVDEKDFLEIARGLVNSGQSFLWVVRPGFVKGSTWVEPLPDGFLGERGRIVKWVPQQEVLAHGAIGAFWTHSGWNSTLESVCEGVPMIFRDFGLDQPLNARYMSDVLKVGVYLENGWERGEIANAIRRVMVDEEGEYIRQNARVLKQKADVSLMKGGSSYESLESLVSYISSL

Assay: Directed evolution of UGT76G1, conversion of Rebaudioside D to Rebaudioside M (round 1)
Type: biochemical
Settings: 0.5 mM Rebaudioside D, 2.5 mM UDP-Glucose, 100 μL fresh lysate, 30° C., pH 7.2
Summary of the method: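 Conversion to Reb M and initial rate were measured by HPLC with CAD at 2, 4, 7 and 24 h, with reactions run at 30° C in 50 mM phosphate pH 7.2 containing 0.5 mM Reb D, 2.5 mM UDP-glucose and 3 mM MgCl2. Enzyme source: fresh lysates of E. coli BL21(DE3) expressing 3-5-mutation UGT76G1 variants.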

In order of falling “Conversion Reb D to Reb M after 24 h (%)” value:
1. B3  42.9%
2. B8  24.7%
3. B6  24.0%
4. B9  19.2%
5. B2  2.6%
6. B4  0.8%
7. B5  0.8%
8. B7  0.6%
9. B1  −1.4%

In order of rising “initial rate (Reb M area/min)” value:
1. B4  −1.3E+05 Reb M area/min
2. B1  −1.1E+05 Reb M area/min
3. B7  9.6E+04 Reb M area/min
4. B2  7.2E+05 Reb M area/min
5. B5  8.7E+05 Reb M area/min
6. B8  8.3E+06 Reb M area/min
7. B6  8.4E+06 Reb M area/min
8. B9  9.1E+06 Reb M area/min
9. B3  2.1E+07 Reb M area/min
